Test results: patent US20260092121A1 (TALEM THERAPEUTICS, published 2026)

Columns and labels:
[1] = molecular target: TrkB in PathHunter eXpress TrkB Functional Assay cells (modified U2OS); experiment: cell-based or functional assay
human TrkB-His [2] = molecular target: T1, human TrkB-His (human, UniProt Q16620 32-430); experiment: BLI off-rate, mAb immobilized, 300 nM TrkB-His
T1 construct: in-house fusion of the TrkB ECD with poly-His, HEK293; also called huTrkB-His; hTrkB-His; not shown: poly-His tag

human TrkB-His [3] = molecular target: T1, human TrkB-His; experiment: ELISA

| TrkB activation (EC50) [1] | koff (human TrkB-His [2]) | binding result (human TrkB-His [3]) | Binder |
| --- | --- | --- | --- |
| 0.00086 ng/mL | 0.00434 s⁻¹ |  | anti-TrkB chicken-derived clone B11 (antibody, V domains shown, chimeric chicken-human mAb) VH: AVTLDESGGGLQTPGGALSLVCKASGFTFSSFNMFWVRQAPGKGLEFVAHIKRNGGETDYGAAVKGRATISRDDGQSTVRLQLNNLRAEDTATYFCAKDAGDNCRWNYCTTNIDAWGHGTEVIVSS VL: QAALTQPASVSANPGETVKITCSGGGRWYGTYYYGWYQQKSPGSAPVTVIYSNDKRPSDIPSRFSGSASGSTATLTITGVQADDEAVYYCGSWDSTDTTAFGAGTTLTVL |
| 7.5 ng/mL | 0.000483 s⁻¹ |  | anti-TrkB chicken-derived clone B1.2 (antibody, V domains shown, chimeric chicken-human mAb) VH: AVTLDESGGGLQTPGGGLSLVCKASGFTFSNHQMAWVRQAPGKGLEYVGLINAAGSWTYYGTAVKGRATISRDNGQSTVRLQLNNLRAEDTATYYCAKDVYGYCSTCGATIDTWGHGTEVIVSS VL: QAALTQPSSVSANPGETVKITCSGPTYDYGWFQQKSPGSAPVTVIYYNDNRPSDIPSRFSGSKSGSTATLTITGVQAEDEAVYYCGTYEDNNGASFGAGTTLTVL |
| 180 ng/mL | 0.000219 s⁻¹ |  | anti-TrkB chicken-derived clone D5 (antibody, V domains shown, chimeric chicken-human mAb) VH: AVTLDESGGGLQTPGGPLSLVCEGSGFTFSSYGMAWVRQAPGKRLEWVASISSTGINAYYGAAVKGRATISRDNGQSTVRLQLNNLRAEDTGIYYCSKCAYSGSCSTSIDAWGHGTEVIVSS VL: QAALTQPASVSANLGGTVEITCSGGSSGYGYGWYQQKSPGSAPVTVIYNNNNRPSDIPSRFSGSLSDSTHTLTITGVRAEDEAVYFCGAWESSATDIFGAGTTLTVL |
|  | 0.00136 s⁻¹ |  | anti-TrkB chicken-derived clone B4.2 (antibody, V domains shown, chimeric chicken-human mAb) VH: AVTLDESGGGLQTPGGGLSLVCKASGFTFSSYTMQWVRQAPGKGLEWVAGICNDGTTTNYGSAVKGRATISRDNGQSTLRLQLNNLRAEDTGIYFCTRGVDICWNSGNNIDAWGHGTEVIVSS VL: QAALTQPASVSANPGETVKITCSGGGSYYGSYYYGWYQQKSPGSAPVTVIYNNDKRPSDIPSRFSGSLSGSTNTLTITGVQVEDESVYFCGSKDSSGAGIYGAGTTLTVL |
|  |  | binds | KiH.3C12_TrkB × 8A05_CD3 (bispecific antibody, scFv-knob-Fc (IgG1 T366W/S354C) + Fab-hole-Fc (T366S/L368A/Y407V/Y349C); also called 3C12-8A05; 3C12/8A05) scFv: QVQLVQSGAEVKKPGESLKISCKGSGYSFTSYWIGWVRQMPGKGLEWMGIIYPGDSDTRYSPSFQGQVTISADKSISTAYLQWSSLKASDTAMYYCTRSSFNDHWGQGTLVTVSSSSGGGGSGGGGSGGSALQPVLTQPPSVSVSPGQTASITCSGDKLGNKFVSWFQQKPGQSPVLVIYQDTKRPSGIPERFSGSNSGSTATLTITGTQAMDDADYYCQAWNTNTALFGGGTKLTVL VH: QVQLQQSGGGLVQSGGSLRLSCAASGFSFGSSAMSWVRQAPGRGLEWVSGISHSGSTTYYADSVKGRFTISRDNSKNTLYLQMNSLRVEDTAVYYCAKIGAYGYYFHYWGQGTLVTVSS VL: NFMLTQPHSVSESPGKTVTISCTRSGGSIASNYVQWYQQRPGSSPTTVIYDDNQRPSGVPDRFSGSIDSSSNSASLTISGLKTEDEADYYCQSSDNINHVIFGGGTKLTVL |
|  |  | binds | KiH.3C12_TrkB × 3G07_CD3 (bispecific antibody, scFv-knob-Fc (IgG1 T366W/S354C) + Fab-hole-Fc (T366S/L368A/Y407V/Y349C); also called 3C12-3G07; 3C12/3G07) scFv: QVQLVQSGAEVKKPGESLKISCKGSGYSFTSYWIGWVRQMPGKGLEWMGIIYPGDSDTRYSPSFQGQVTISADKSISTAYLQWSSLKASDTAMYYCTRSSFNDHWGQGTLVTVSSSSGGGGSGGGGSGGSALQPVLTQPPSVSVSPGQTASITCSGDKLGNKFVSWFQQKPGQSPVLVIYQDTKRPSGIPERFSGSNSGSTATLTITGTQAMDDADYYCQAWNTNTALFGGGTKLTVL VH: QVQLQQSGGGLVQPGGSLRLSCAASGFSFGSSAMSWVRQAPGRGLEWVSGISHSGSTTYYADSVKGRFTISRDNSKNTLYLQMNSLRVEDTAVYYCAKIGAYGYYFHYWGQGTLVTVSS VL: NFMLTQPHSLSESPGKTVTISCTRSSGSIASKYVQWYQQRPGSAPTTVIYDDKQRPSGVPDRFSGSFDSSSNSASLTISGLKTEDEADYYCQSFDSTNQAVVFGGGTKLTVL |
| 380 ng/mL | 0.0156 s⁻¹ |  | anti-TrkB chicken-derived clone F1.3 (antibody, V domains shown, chimeric chicken-human mAb) VH: AVTLDESGGGLQTPGGALSLVCKASGFTFSSFPMVWVRQAPGKGLEFVAGIVRTSTPKYGAAVTGRATISRDNGQSTVRLQLNNLRAEDTGTYFCAKSATICGNCPEDIDAWGHGTEVIVSS VL: QAALTQPASVSANPGETVKITCSGGSSDYGWFQQKSPGSAPVTVIYYSDKRPSDIPSRFSGSTSGSTNTLTITGVQVEDEAVYFCGSGDNSYVGFGAGTTLTVL |
| 4.5 ng/mL | 0.00176 s⁻¹ |  | anti-TrkB chicken-derived clone A12 (antibody, V domains shown, chimeric chicken-human mAb) VH: AVTLDESGGGLQTPGGALSLVCKASGFTFSSFPMVWVRQAPGKGLEFVAGIVRTSTPKYGAAVTGRATISRDNGQSTVRLQLNNLRAEDTGTYFCAKSATICGNCPEDIDAWGHGTEVIVSS VL: QAALTQPASVSANPGETVKITCSGGSSDYGWFQQKSPGSAPVTVIYYSDKRPSDIPSRFSGSASGSMGALIITGVQAEDEAVYFCGSRDSSNVAIFGAGTTLTVL |
| 8.9 ng/mL | 0.00114 s⁻¹ |  | anti-TrkB chicken-derived clone B5 (antibody, V domains shown, chimeric chicken-human mAb) VH: AVTLDESGGGLQTPGGALSLVCKASGFTFSSFPMVWVRQAPGKGLEFVAGIVRTSTPKYGAAVTGRATISRDNGQSTVRLQLNNLRAEDTGTYFCAKSATICGNCPEDIDAWGHGTEVIVSS VL: QAALTQPASVSANPGETVKITCSGGSSDYGWFQQKSPGSAPVTVIYYSDKRPSDIPSRFSGSTSGSMGALIITGVQAEDEAVYFCGSRDSSNVAIFGAGTTLTVL |
| 46 ng/mL | 0.00163 s⁻¹ |  | anti-TrkB chicken-derived clone F5 (antibody, V domains shown, chimeric chicken-human mAb) VH: not shown VL: QAALTQPASVSANPGETVKITCSGYKSYYGWYQQKSPGSAPVTVIYDNTNRPSNIPSRFSGSTSGSTATLTITGVQADDEAVYYCGNADHSYVGVFGAGTTLTVL |
|  |  | binds | KiH.6E08_TrkB × 1A09_CD3 (bispecific antibody, scFv-knob-Fc (IgG1 T366W/S354C) + Fab-hole-Fc (T366S/L368A/Y407V/Y349C); also called 6E08-1A09) scFv: QVQLVQSGGGVVQPGRSLRLSCAASGFTFSSYAMHWVRQAPGKGLEWVAVISYDGSNKYYADSVKGRFTISRDNSKNTLYLQMNSLRAEDTAVYYCARAFRRYDAFDIWGQGTLVTVSSSSGGGGSGGGGSGGSALDIQMTQTPLSLSVTLGQPASISCRSSQGLVYSDGNTYLNWFQQRPGQSPRRLIYKVSNRDSGVPDRFSGSGSGTDFTLKISRVEAEDVGVYYCMQGTHWPPAFGQGTKVEIK VH: EVQLVQSGGGLVKPGGSLRLSCAASGFTFSSYSMNWVRQAPGKGLEWVSSISSSSSYIYYADSVKGRFTISRDNSKNTLYLQMNSLRAEDTAVYYCARVKDYDSSLDYWGQGTLVTVSS VL: SYELMQPPSVSVSPGQTARITCSGFKLGDKYVSWYQQKPGQSPVLVIYQDSKRPSGIPERFSGSNSGNTATLTISGTQAMDEADYYCQAWDSSTVVFGGGTKLTVL |
|  |  | binds | KiH.6E08_TrkB × 3G07_CD3 (bispecific antibody, scFv-knob-Fc (IgG1 T366W/S354C) + Fab-hole-Fc (T366S/L368A/Y407V/Y349C); also called 6E08-3G07) scFv: QVQLVQSGGGVVQPGRSLRLSCAASGFTFSSYAMHWVRQAPGKGLEWVAVISYDGSNKYYADSVKGRFTISRDNSKNTLYLQMNSLRAEDTAVYYCARAFRRYDAFDIWGQGTLVTVSSSSGGGGSGGGGSGGSALDIQMTQTPLSLSVTLGQPASISCRSSQGLVYSDGNTYLNWFQQRPGQSPRRLIYKVSNRDSGVPDRFSGSGSGTDFTLKISRVEAEDVGVYYCMQGTHWPPAFGQGTKVEIK VH: QVQLQQSGGGLVQPGGSLRLSCAASGFSFGSSAMSWVRQAPGRGLEWVSGISHSGSTTYYADSVKGRFTISRDNSKNTLYLQMNSLRVEDTAVYYCAKIGAYGYYFHYWGQGTLVTVSS VL: NFMLTQPHSLSESPGKTVTISCTRSSGSIASKYVQWYQQRPGSAPTTVIYDDKQRPSGVPDRFSGSFDSSSNSASLTISGLKTEDEADYYCQSFDSTNQAVVFGGGTKLTVL |
|  |  | binds | KiH.3C12_TrkB × 1A09_CD3 (bispecific antibody, scFv-knob-Fc (IgG1 T366W/S354C) + Fab-hole-Fc (T366S/L368A/Y407V/Y349C); also called 3C12-1A09; 3C12/1A09) scFv: QVQLVQSGAEVKKPGESLKISCKGSGYSFTSYWIGWVRQMPGKGLEWMGIIYPGDSDTRYSPSFQGQVTISADKSISTAYLQWSSLKASDTAMYYCTRSSFNDHWGQGTLVTVSSSSGGGGSGGGGSGGSALQPVLTQPPSVSVSPGQTASITCSGDKLGNKFVSWFQQKPGQSPVLVIYQDTKRPSGIPERFSGSNSGSTATLTITGTQAMDDADYYCQAWNTNTALFGGGTKLTVL VH: EVQLVQSGGGLVKPGGSLRLSCAASGFTFSSYSMNWVRQAPGKGLEWVSSISSSSSYIYYADSVKGRFTISRDNSKNTLYLQMNSLRAEDTAVYYCARVKDYDSSLDYWGQGTLVTVSS VL: SYELMQPPSVSVSPGQTARITCSGFKLGDKYVSWYQQKPGQSPVLVIYQDSKRPSGIPERFSGSNSGNTATLTISGTQAMDEADYYCQAWDSSTVVFGGGTKLTVL |
|  |  | binds | KiH.6E08_TrkB × 8A05_CD3 (bispecific antibody, scFv-knob-Fc (IgG1 T366W/S354C) + Fab-hole-Fc (T366S/L368A/Y407V/Y349C); also called 6E08-8A05) scFv: QVQLVQSGGGVVQPGRSLRLSCAASGFTFSSYAMHWVRQAPGKGLEWVAVISYDGSNKYYADSVKGRFTISRDNSKNTLYLQMNSLRAEDTAVYYCARAFRRYDAFDIWGQGTLVTVSSSSGGGGSGGGGSGGSALDIQMTQTPLSLSVTLGQPASISCRSSQGLVYSDGNTYLNWFQQRPGQSPRRLIYKVSNRDSGVPDRFSGSGSGTDFTLKISRVEAEDVGVYYCMQGTHWPPAFGQGTKVEIK VH: QVQLQQSGGGLVQSGGSLRLSCAASGFSFGSSAMSWVRQAPGRGLEWVSGISHSGSTTYYADSVKGRFTISRDNSKNTLYLQMNSLRVEDTAVYYCAKIGAYGYYFHYWGQGTLVTVSS VL: NFMLTQPHSVSESPGKTVTISCTRSGGSIASNYVQWYQQRPGSSPTTVIYDDNQRPSGVPDRFSGSIDSSSNSASLTISGLKTEDEADYYCQSSDNINHVIFGGGTKLTVL |
| 170 ng/mL | 0.000575 s⁻¹ |  | anti-TrkB chicken-derived clone E2 (antibody, V domains shown, chimeric chicken-human mAb) VH: AVTLDESGGGLQTPGGALSLVCKASGFDFSSNAMGWVRQAPGKGLEFIASITTDGSYTTYGAAVKGRATISRDDGQSTLRLQLNNLRAEDTATYYCAKDSSIHWNGYDIDAWGHGTEVIVSS VL: QAALTQPSSVSANPGETVKITCSGSINNYGWYQQKSPGSAPVTVIYQNDKRPSDIPSRFSGSKSGSTGTLTITGVQAEDEAVYFCGSEDSRTYLGIFGAGTTLTVL |
